Assay results published in publication PMC9352680, “A comprehensive thermodynamic model for RNA binding by the Saccharomyces cerevisiae Pumilio protein PUF4”.

T1: PUF4 RNA-binding domain (Saccharomyces cerevisiae, UniProt P25339 537-888)
T1 sequence: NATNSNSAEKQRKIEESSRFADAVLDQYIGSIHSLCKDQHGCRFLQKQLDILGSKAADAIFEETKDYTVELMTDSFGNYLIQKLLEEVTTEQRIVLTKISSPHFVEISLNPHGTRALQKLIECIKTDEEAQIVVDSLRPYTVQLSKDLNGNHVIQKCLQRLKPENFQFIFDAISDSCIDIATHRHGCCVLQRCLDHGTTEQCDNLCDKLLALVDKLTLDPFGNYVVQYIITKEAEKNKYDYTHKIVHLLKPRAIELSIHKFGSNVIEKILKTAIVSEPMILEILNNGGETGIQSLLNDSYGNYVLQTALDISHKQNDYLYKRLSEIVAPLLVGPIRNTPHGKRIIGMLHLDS


What follows are binders tested against T1, PUF4 RNA-binding domain (assay: Mg; RNA-MaP; 20 mM Na-HEPES pH 7.4, 30 mM KOAc, 0.75 mM MgCl2, 0.1% Tween-20, 5% glycerol, 0.1 mg/mL BSA, 2 mM DTT; 25 C; 0.0125-409.6 nM protein). Conditions: tags: N-His6-TEV cleaved; C-SNAP kept, Cy3B-labelled; label: tethered on chip by stalled RNA polymerase.

Binder	Kd [nM]
ACAAACAGACACUUAUUAUCACAAAC (ssRNA) [Id_ii_S3_P5E.4_K5.3_C5.2_[C-2A]_[T-1G]_H5.3_A5.1_F5.1_T5.2_[A12C]]	> 2300
ACAAACAGACACUUAUUACCACAAAC (ssRNA) [Id_ii_S3_P5E.4_K5.3_C5.2_[C-2A]_[T-1G]_H5.3_A5.1_F5.1_T5.2_[T11C]_[A12C]]	> 2300
ACAAACGCACACUUAUUAGAACAAAC (ssRNA) [Id_ii_S3_P5E.4_K5.3_C5.2_[C-2G]_[T-1C]_H5.3_A5.1_F5.1_T5.2_[T11G]]	> 2300
ACAAACGCACACUUAUUAUAACAAAC (ssRNA) [Id_ii_S3_P5E.4_K5.3_C5.2_[C-2G]_[T-1C]_H5.3_A5.1_F5.1_T5.2]	> 2300
ACAAACUCACACUUAUUAUGACAAAC (ssRNA) [Id_ii_S3_P5E.4_K5.3_C5.2_[C-2T]_[T-1C]_H5.3_A5.1_F5.1_T5.2_[A12G]]	> 2300
ACAAACUCACACUUAUUAAAACAAAC (ssRNA) [Id_ii_S3_P5E.4_K5.3_C5.2_[C-2T]_[T-1C]_H5.3_A5.1_F5.1_T5.2_[T11A]]	> 2300
ACAAACGGACACUUAUUAAGACAAAC (ssRNA) [Id_ii_S3_P5E.4_K5.3_C5.2_[C-2G]_[T-1G]_H5.3_A5.1_F5.1_T5.2_[T11A]_[A12G]]	> 2300
ACAAACAAACACUUAUUAUCACAAAC (ssRNA) [Id_ii_S3_P5E.4_K5.3_C5.2_[C-2A]_[T-1A]_H5.3_A5.1_F5.1_T5.2_[A12C]]	> 2300
UCUCUUUCUCUUAUUAUCUCUU (ssRNA) [Ib_S1_P5E.1_K5.1_C5.1_H5.1_[G2C]_[A4C]_A5.1_F5.1_T5.1]	> 2300
ACAAACUCACACUUAUUAAUACAAAC (ssRNA) [Id_ii_S3_P5E.4_K5.3_C5.2_[C-2T]_[T-1C]_H5.3_A5.1_F5.1_T5.2_[T11A]_[A12T]]	> 2300
ACAAACAAACACUUAUUAUAACAAAC (ssRNA) [Id_ii_S3_P5E.4_K5.3_C5.2_[C-2A]_[T-1A]_H5.3_A5.1_F5.1_T5.2]	> 2300
ACAAACUGACACUUAUUACGACAAAC (ssRNA) [Id_ii_S3_P5E.4_K5.3_C5.2_[C-2T]_[T-1G]_H5.3_A5.1_F5.1_T5.2_[T11C]_[A12G]]	> 2300
ACAAACCUUAUAUUAUUACGACAAAC (ssRNA) [Id_ii_S3_P5E.3_K5.2_C5.2_H5.2_A5.1_F5.1_T5.2_[T11C]_[A12G]]	406
ACAAACACACACUUAUUAACACAAAC (ssRNA) [Id_ii_S3_P5E.4_K5.3_C5.2_[C-2A]_[T-1C]_H5.3_A5.1_F5.1_T5.2_[T11A]_[A12C]]	> 2300
ACAAACAAACACUUAUUAUGACAAAC (ssRNA) [Id_ii_S3_P5E.4_K5.3_C5.2_[C-2A]_[T-1A]_H5.3_A5.1_F5.1_T5.2_[A12G]]	> 2300
ACAAACAAACACUUAUUAAGACAAAC (ssRNA) [Id_ii_S3_P5E.4_K5.3_C5.2_[C-2A]_[T-1A]_H5.3_A5.1_F5.1_T5.2_[T11A]_[A12G]]	> 2300

Binder	Kd [nM]
ACAAACGUACACUUAUUACCACAAAC (ssRNA) [Id_ii_S3_P5E.4_K5.3_C5.2_[C-2G]_H5.3_A5.1_F5.1_T5.2_[T11C]_[A12C]]	972
ACAAACAUACACUUAUUACGACAAAC (ssRNA) [Id_ii_S3_P5E.4_K5.3_C5.2_[C-2A]_H5.3_A5.1_F5.1_T5.2_[T11C]_[A12G]]	> 2300
ACAAACCAUAUAUUAUUACAACAAAC (ssRNA) [Id_ii_S3_P5E.3_K5.2_C5.2_[T-1A]_H5.2_A5.1_F5.1_T5.2_[T11C]]	240
ACAAACAGACACUUAUUACAACAAAC (ssRNA) [Id_ii_S3_P5E.4_K5.3_C5.2_[C-2A]_[T-1G]_H5.3_A5.1_F5.1_T5.2_[T11C]]	> 2300
ACAAACGCACACUUAUUAAGACAAAC (ssRNA) [Id_ii_S3_P5E.4_K5.3_C5.2_[C-2G]_[T-1C]_H5.3_A5.1_F5.1_T5.2_[T11A]_[A12G]]	> 2300
ACAAACCAUAUAUUAUUACUACAAAC (ssRNA) [Id_ii_S3_P5E.3_K5.2_C5.2_[T-1A]_H5.2_A5.1_F5.1_T5.2_[T11C]_[A12T]]	168
ACAAACAAACACUUAUUAGGACAAAC (ssRNA) [Id_ii_S3_P5E.4_K5.3_C5.2_[C-2A]_[T-1A]_H5.3_A5.1_F5.1_T5.2_[T11G]_[A12G]]	> 2300
ACAAACUCACACUUAUUAGCACAAAC (ssRNA) [Id_ii_S3_P5E.4_K5.3_C5.2_[C-2T]_[T-1C]_H5.3_A5.1_F5.1_T5.2_[T11G]_[A12C]]	> 2300
ACAAACUCACACUUAUUACGACAAAC (ssRNA) [Id_ii_S3_P5E.4_K5.3_C5.2_[C-2T]_[T-1C]_H5.3_A5.1_F5.1_T5.2_[T11C]_[A12G]]	> 2300
ACAAACCAUAUAUUAUUAACACAAAC (ssRNA) [Id_ii_S3_P5E.3_K5.2_C5.2_[T-1A]_H5.2_A5.1_F5.1_T5.2_[T11A]_[A12C]]	201
UCUCUUUCUUUUAUUAUCUCUU (ssRNA) [Ib_S1_P5E.1_K5.1_C5.1_H5.1_[G2C]_[A4T]_A5.1_F5.1_T5.1]	> 2300
ACAAACAGACACUUAUUAUUACAAAC (ssRNA) [Id_ii_S3_P5E.4_K5.3_C5.2_[C-2A]_[T-1G]_H5.3_A5.1_F5.1_T5.2_[A12T]]	> 2300
ACAAACGGACACUUAUUACAACAAAC (ssRNA) [Id_ii_S3_P5E.4_K5.3_C5.2_[C-2G]_[T-1G]_H5.3_A5.1_F5.1_T5.2_[T11C]]	> 2300
ACAAACUGACACUUAUUACCACAAAC (ssRNA) [Id_ii_S3_P5E.4_K5.3_C5.2_[C-2T]_[T-1G]_H5.3_A5.1_F5.1_T5.2_[T11C]_[A12C]]	> 2300
UCUCUUUAUGUUAUUAUCUCUU (ssRNA) [Ib_S1_P5E.1_K5.1_C5.1_H5.1_[G2A]_[A4G]_A5.1_F5.1_T5.1]	2070
